Assay results as given in patent US20210309709A1 (AKSTON BIOSCIENCES, published 2021).
Residue numbers refer to the chain shown, from its start.

B1: insulin-Fc fusion protein of SEQ ID NO: 26 (Fc fusion)
chain: FVNQHLCGSHLVEALELVCGERGFHYGGGGGGSGGGGGIVEQCCTSTCSLDQLENYCGGGGGQGGGGQGGGGQGGGGGDCPKCPAPEMLGGPSVFIFPPKPKDTLLIARTPEVTCVVVDLDPEDPEVQISWFVDGKQMQTAKTQPREEQFNGTYRVVSVLPIGHQDWLKGKQFTCKVNNKALPSPIERTISKARGQAHQPSVYVLPPSREELSKNTVSLTCLIKDFFPPDIDVEWQSNGQQEPESKYRTTPPQLDEDGSYFLYSKLSVDKSRWQRGDTFICAVMHEALHNHYTQESLSHSPG
modifications: native N-glycosylation site cNg-NB151
B2: insulin-Fc fusion protein of SEQ ID NO: 62 (Fc fusion)
chain: B1 chain with N151S
notes: also called cNg-NB151-S
B3: insulin-Fc fusion protein of SEQ ID NO: 30 (Fc fusion)
chain: B1 chain with E16A, N151S
B4: insulin-Fc fusion protein of SEQ ID NO: 61 (Fc fusion)
chain: B1 chain with D119A, N151S
notes: also called cNg-NB151-S, NB119-A
B5: insulin-Fc fusion protein of SEQ ID NO: 75 (Fc fusion)
chain: FVNQHLCGSHLVEALELVCGERGFHYGGGGGGSGGGGGIVEQCCTSTCSLDQLENYCGGGGGQGGGGQGGGGQGGGGGECPPCPAPPVAGPSVFLFPPKPKDTLMISRTPEVTCVVVDVSHEDPEVQFNWYVDGVEVHNAKTKPREEQFNSTFRVVSVLTVVHQDWLNGKEYKCKVSNKGLPAPIEKTISKTKGQPREPQVYTLPPSREEMTKNQVSLTCLVKGFYPSDIAVEWESNGQPENNYKTTPPMLDSDGSFFLYSKLTVDKSRWQQGNVFSCSVMHEALHNHYTQKSLSLSPG
notes: HEK293, Protein A; also called hIgG2
B6: insulin-Fc fusion protein of SEQ ID NO: 36 (Fc fusion)
chain: FVNQHLCGSDLVEALALVCGERGFFYTDPTGGGPRRGIVEQCCHSICSLYQLENYCNGGGGAGGGGDCPKCPAPEMLGGPSVFIFPPKPKDTLLIARTPEVTCVVVDLDPEDPEVQISWFVDGKQMQTAKTQPREEQFNGTYRVVSVLPIGHQDWLKGKQFTCKVNNKALPSPIERTISKARGQAHQPSVYVLPPSREELSKNTVSLTCLIKDFFPPDIDVEWQSNGQQEPESKYRTTPPQLDEDGSYFLYSKLSVDKSRWQRGDTFICAVMHEALHNHYTQESLSHSPG
modifications: native N-glycosylation site cNg-NB139
notes: HEK293, Protein A
B7: insulin-Fc fusion protein of SEQ ID NO: 42 (Fc fusion)
chain: B6 chain with N139K
notes: also called cNg-NB139-K; cNg-K
B8: insulin-Fc fusion protein of SEQ ID NO: 41 (Fc fusion)
chain: B6 chain with N139D
notes: also called cNg-NB139-D; cNg-D
B9: insulin-Fc fusion protein of SEQ ID NO: 40 (Fc fusion)
chain: B6 chain with N139S
notes: non-glycosylated canine IgGB Fc; also called cNg-NB139-S; cNg-S
B10: insulin-Fc fusion protein of SEQ ID NO: 58 (Fc fusion)
chain: FVNQHLCGSHLVEALELVCGERGFHYGGGGGGSGGGGGIVEQCCTSTCSLDQLENYCGGGGGQGGGGQGGGGQGGGGGRCTDTPPCPVPEPLGGPSVLIFPPKPKDILRITRTPEVTCVVLDLGREDPEVQISWFVDGKEVHTAKTQSREQQFNGTYRVVSVLPIEHQDWLTGKEFKCRVNHIDLPSPIERTISKARGRAHKPSVYVLPPSPKELSSSDTVSITCLIKDFYPPDIDVEWQSNGQQEPERKHRMTPPQLDEDGSYFLYSKLSVDKSRWQQGDPFTCAVMHETLQNHYTDLSLSHSPG
notes: purified on Protein A or Protein G

Assays:
[1] = target: T1, biotinylated recombinant human Fc(gamma)RI (R&D Systems) (human, UniProt P12314 16-288); assay: ELISA, fusion coated, biotinylated rhFc(gamma)RI at 3000 ng/mL
T1 construct: soluble in ELISA; also called rhFc(gamma)RI; Fc(gamma) receptor I
T1 sequence (P12314 16-288 limits assumed): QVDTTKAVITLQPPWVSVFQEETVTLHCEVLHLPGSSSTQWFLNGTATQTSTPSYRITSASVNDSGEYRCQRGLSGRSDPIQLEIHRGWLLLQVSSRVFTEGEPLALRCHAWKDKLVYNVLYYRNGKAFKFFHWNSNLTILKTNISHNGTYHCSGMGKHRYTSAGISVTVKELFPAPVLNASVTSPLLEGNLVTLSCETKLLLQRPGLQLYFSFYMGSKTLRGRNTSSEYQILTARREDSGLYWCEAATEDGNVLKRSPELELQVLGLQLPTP
Procedure: (§1) The binding of insulin-Fc fusion proteins to the Fc(gamma)RI at pH 7.4 is conducted using an ELISA assay as follows using human Fc(gamma)RI (i.e., rhFc(gamma)RI). Insulin-Fc fusion proteins are diluted to 10 μg/mL in sodium bicarbonate buffer at pH 9.6 and coated on Maxisorp (Nunc) microtiter plates overnight at 4° C., after which the microplate strips are washed 5 times with PBST (PBS/0.05% Tween-20) buffer and blocked with Superblock blocking reagent (ThermoFisher). Serial dilutions of biotinylated rhFc(gamma)RI (recombinant human Fc(gamma)RI; R&D Systems) are prepared in PBST/10% Superblock buffer from 3000 ng/mL to 4.1 ng/mL and loaded at 100 μL/well onto the microplate strips coated with insulin-Fc fusion protein. The microtiter plate is incubated for 1 hour at room temperature after which time the microplate strips are washed 5 times with PBST and then loaded with 100 μL/well of streptavidin-HRP diluted 1:10000 in PBST/10% Superblock buffer. After incubating for 45 min, the microplate strips are washed again 5 times with PBST. TMB is added to reveal the bound Fc(gamma)RI proteins and is stopped with ELISA stop reagent (Boston Bioproducts). The plate is read in an ELISA plate reader at 450 nm, and the OD450 values (proportional to the binding of rhFc(gamma)RI to insulin-Fc protein) are plotted against log concentrations of rhFc(gamma)RI added to each well to generate binding curves using GraphPad Prism software. For groupings of compounds with somewhat similar curves, the OD450 at one of the higher concentrations, for instance at rhFc(gamma)RI concentrations of 3000 ng/mL, can be used to identify differences between coated insulin-Fc fusion protein compounds. […]
Finally, select compounds were tested for their likelihood to interact with the immune system by measuring their Fc(gamma) receptor binding activity according to the procedure of Example 15.

[2] = target: T2, biotinylated human complement component C1q (Sigma-Aldrich) (human, UniProt P02745 23-245; P02746 28-253; P02747 29-245); assay: ELISA, fusion coated, biotinylated human C1q at 1000 ng/mL
T2 construct: Sigma-Aldrich', a protein complex; also called complement component 1q; biotinylated-C1q
T2 sequence (P02745 23-245 limits assumed, chain 1 of 3): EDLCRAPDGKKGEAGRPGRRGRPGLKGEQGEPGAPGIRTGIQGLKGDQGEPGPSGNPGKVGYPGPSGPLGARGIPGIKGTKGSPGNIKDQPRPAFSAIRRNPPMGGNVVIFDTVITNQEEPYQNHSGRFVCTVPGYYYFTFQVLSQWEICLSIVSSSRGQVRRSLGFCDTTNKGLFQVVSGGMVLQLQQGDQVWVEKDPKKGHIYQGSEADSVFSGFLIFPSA
T2 sequence (P02746 28-253 limits assumed, chain 2 of 3): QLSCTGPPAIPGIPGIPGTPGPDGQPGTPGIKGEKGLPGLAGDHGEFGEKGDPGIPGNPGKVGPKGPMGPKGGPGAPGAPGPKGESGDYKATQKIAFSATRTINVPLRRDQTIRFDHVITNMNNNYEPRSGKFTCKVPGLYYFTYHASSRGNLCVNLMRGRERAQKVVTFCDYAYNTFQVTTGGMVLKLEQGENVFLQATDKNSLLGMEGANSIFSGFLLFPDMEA
T2 sequence (P02747 29-245 limits assumed, chain 3 of 3): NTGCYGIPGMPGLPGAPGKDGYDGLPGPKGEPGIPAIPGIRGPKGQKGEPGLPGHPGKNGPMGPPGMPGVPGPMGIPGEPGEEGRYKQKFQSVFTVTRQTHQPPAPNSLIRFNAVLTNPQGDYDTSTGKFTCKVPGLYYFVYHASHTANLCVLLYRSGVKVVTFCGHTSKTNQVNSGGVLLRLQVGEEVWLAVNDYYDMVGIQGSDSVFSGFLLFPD

[3] = target: T1, biotinylated recombinant human …; assay: ELISA, fusion coated, biotinylated rhFc(gamma)RI at 3000 ng/mL; remark: listed apart in the source
Procedure: The binding of insulin-Fc fusion proteins to the Fc(gamma)RI at pH 7.4 was conducted using an ELISA assay as follows using human Fc(gamma)RI (i.e., rhFc(gamma)RI). Insulin-Fc fusion proteins were diluted to 10 μg/mL in sodium bicarbonate buffer at pH 9.6 and coated on Maxisorp (Nunc) microtiter plates overnight at 4° C., after which the microplate strips were washed 5 times with PBST (PBS/0.05% Tween-20) buffer and blocked with Superblock blocking reagent (ThermoFisher). […] The plate was read in an ELISA plate reader at 450 nm, and the OD450 values (proportional to the binding of rhFc(gamma)RI to insulin-Fc protein) were plotted against log concentrations of rhFc(gamma)RI added to each well to generate binding curves using GraphPad Prism software. […] In order to compare differences across multiple insulin-Fc fusion proteins run at different times, the human Fc(gamma)RI assay OD450 Ratio was calculated as the OD450 value of a test insulin-Fc fusion protein compound obtained at a biotinylated-Fc(gamma)RI concentration of 3000 ng/mL, divided by the OD450 value of a reference insulin-Fc fusion protein of SEQ ID NO: 76 obtained at a biotinylated-Fc(gamma)RI concentration of 3000 ng/mL.

[4] = target: T1, biotinylated recombinant human …; assay: ELISA, fusion coated, biotinylated rhFc(gamma)RI (concentration not clear from the table head)
Procedure: as §1

Binder | OD450 nm [1] | OD450 nm minus assay background [1] | ratio to SEQ ID NO: 36 [1] | OD450 Ratio to SEQ ID NO: 76 [2] | OD450 Ratio to SEQ ID NO: 76 [3] | OD450 nm [4] | OD450 nm minus assay background [4] | ratio to SEQ ID NO: 36 [4]
B1 | 0.368 OD450 | 0.311 OD450 | 0.84 ratio |  |  |  |  | 
B2 | 0.175 OD450 | 0.118 OD450 | 0.32 ratio |  |  |  |  | 
B3 | 0.177 OD450 | 0.12 OD450 | 0.32 ratio |  |  |  |  | 
B4 | 0.166 OD450 | 0.109 OD450 | 0.29 ratio |  |  |  |  | 
B5 |  |  |  | 0.309 ratio | 0.045 ratio |  |  | 
B6 | 0.428 OD450 | 0.371 OD450 | 1 ratio |  |  | 0.386 OD450 | 0.323 OD450 | 1 ratio
B7 |  |  |  |  |  | 0.126 OD450 | 0.063 OD450 | 0.2 ratio
B8 |  |  |  |  |  | 0.204 OD450 | 0.141 OD450 | 0.44 ratio
B9 |  |  |  |  |  | 0.14 OD450 | 0.077 OD450 | 0.24 ratio
B10 | 0.253 OD450 | 0.196 OD450 | 0.53 ratio |  |  |  |  | 
